{"source": "paper PMC5404360", "about": "“Identification of a Novel (-)-5-Epieremophilene Synthase from Salvia miltiorrhiza via Transcriptome Mining” (Frontiers in Plant Science, 2017)", "proteins": {"B1": {"name": "SmSTPS1 (Salvia miltiorrhiza) (protein)", "chain": "MATTQAQIQRPIANFSPSLWGDQFIKNDPGAKAAEKHCKAVEELKKEVMNMITAAGSNLVEAMNLIDTLERLGISYHFEKEIDQKLKHFFNLNKDYSDESYDLYTVSLHFRLFRQHGHRISSDIFGRWIDESGKFKEGLKTDGKGLLSLYEASYLRTRGETILDDALEFATATLNSIAPHLESPLSKQVVHALIQPLHYGNPRIEAHNFISIYEENQDKNEFLLRFAKLDYNLLQMLHKEELNEVSRWWKELDLVSKLPYARDRVVECFFWAMGVYHEPQYSRARIMLTKTITMTSIIDDTYDAYGVIEELDIFTEAIERWNMEEMKKLPEYIQPFYKALLELYEQFEEELAEEGRSYAAHYAIESLKELVRSYHVEAKWFIQGYLPPFEEYLKNALITCTYCYHTTTSLLGVESAVEEDFEWLANKPKMLVAGLLICRVIDDIATYEVEKERGQSATGIESYMRDNNATIEEAVAKFFEIATDAWKDINEECLMPSPYSRDVLMRILNLERIIDVTYKGNEDGYTQPEKVLKPHIIALFVDPIKM", "notes": "full-length ORF, 546 aa, in pET-32a (N-terminal thioredoxin/His tag fusion, kept), E. coli Rosetta (DE3), Ni-NTA purified"}, "B2": {"name": "SmSTPS2 (Salvia miltiorrhiza) (protein)", "chain": "MATTQVEIQRPIANFSPSLWGDQFIKNDSGAKAAEKHCKAVEELKKEVMNMITAGGSNLVEAMNLIDTLERLGISYHFEKEIDQKLNHFFNLNTDYSDEFYDLYTVSLHFRLFRQHGHRISSDIFGRWIDESGKFKEGLKTDGKGLLSLYEASYLRTRGETILDDALEFATATLNSIAPHLESPLSKQVVHALIQPLHYGNPRIEAHNFISIYEENQDKNEFLLKFAKLDYNLLQMLHKEELHEVSRWWKELDLVSKLPYARDRVVECFFWAMGVYHEPQYSRARIMLTKTITMTSIIDDTYDAYGVIEELDIFTEAIERWNIEEMDRLPEYVKPFYKALLELYEQFEEELAEEGRSYAAHYAIESLKELVRSYHVEAKWFIQGYLPPFEEYLKNALITCTYCYHTTTSLLGVESAVEEDFQWLAKKPKMLVAGLLICRVIDDIATYEVEKERGQSATGIESYMRDNNATIEEAVAKFFEIATDAWKDINEECLMPSPYSRDVLMRILNLERIIDVTYKGNEDGYTQPEKVLKPHIIALFVDPIKM", "notes": "as for B1"}, "B3": {"name": "SmSTPS3 (Salvia miltiorrhiza) (protein)", "chain": "B2 chain with G55A, G56E, N91S, F100S", "notes": "as for B1"}}, "assay_in_all_cases": "GC-MS product quantification, Michaelis-Menten fit", "assay_type_in_all_cases": "biochemical, Salvia miltiorrhiza", "conditions_in_all_cases": "Mg2+ (5 mM MgCl2), 25 mM HEPES pH 7.0, 5 mM DTT, 30°C, 5 min, FPP 2.3-184.6 μM", "key": {"[1]": {"substrate": "CC(C)=CCC/C(C)=C/CC/C(C)=C/CO[P@@](=O)(O)OP(=O)(O)O", "from_the_text": "GC-MS product quantification, Michaelis-Menten fit on […]1"}, "[2]": {"substrate": "CC(C)=CCC/C(C)=C/CC/C(C)=C/CO[P@@](=O)(O)OP(=O)(O)O", "from_the_text": "GC-MS product quantification, Michaelis-Menten fit on […]2", "remark": "listed apart in the source"}, "[3]": {"substrate": "CC(C)=CCC/C(C)=C/CC/C(C)=C/CO[P@@](=O)(O)OP(=O)(O)O", "from_the_text": "GC-MS product quantification, Michaelis-Menten fit on […]3", "remark": "listed apart in the source"}}, "note": "Changes are numbered by the printed parent chain."}
{"protein": "B1", "values": [{"measurement": "Km", "setting": "[1]", "value": "25.35 ± 1.88", "unit": "µM"}, {"measurement": "kcat", "setting": "[1]", "value": "2.09 ± 0.05", "unit": "s⁻¹"}, {"measurement": "kcat/Km", "setting": "[1]", "value": "82700 ± 40600", "unit": "M⁻¹ s⁻¹"}]}
{"protein": "B2", "values": [{"measurement": "Km", "setting": "[2]", "value": "24.20 ± 0.84", "unit": "µM"}, {"measurement": "kcat", "setting": "[2]", "value": "2.07 ± 0.13", "unit": "s⁻¹"}, {"measurement": "kcat/Km", "setting": "[2]", "value": "85600 ± 38200", "unit": "M⁻¹ s⁻¹"}]}
{"protein": "B3", "values": [{"measurement": "Km", "setting": "[3]", "value": "10.44 ± 1.07", "unit": "µM"}, {"measurement": "kcat", "setting": "[3]", "value": "1.53 ± 0.02", "unit": "s⁻¹"}, {"measurement": "kcat/Km", "setting": "[3]", "value": "148000 ± 13200", "unit": "M⁻¹ s⁻¹"}]}
